Assay [1] has as its target FGF2 (UniProt P09038). Kind of assay: SPR; BIAcore X-100; FGF8b (20 μg/ml in 10 mM sodium acetate, pH 6.0) or other FGFs (10 mM sodium acetate at optimal pH) immobilised on a CM5 sensor chip by EDC/NHS; peptide injected (ARPCA 8 μM to 2000 μM), 4 min at 30 μl/min, 10 min dissociation, in HBS; equilibrium values fitted with the Langmuir equation for monovalent binding. For orientation: In SPR one partner is held on a chip, and binding of the other changes the refractive index at the surface.

For assay [2], the target named is Human recombinant FGF8b (fibroblast growth factor-8b) (human). The description is as above.
Assay [3] deals with FGF1 (UniProt P05230). The assay is described as above.
Assay [4] has as its target Human recombinant FGF8b (fibroblast growth factor-8b) (human).

With Ac-ARPCA-NH2 [Ac-ARPCA-NH2, acetylated pentapeptide corresponding to PTX3(100-104)], the Kd (as a rule, a measure of binding affinity in units of concentration) in assay [1] amounted to 1700 µM; in assay [2], 278 µM; in assay [3], 227 µM. Besides, the inhibition of HUVEC proliferation in response to 30 ng/ml FGF8b (viable cell counts at 48 h) in assay [4] came to 30 µM.

The values above are taken from PMC4537050, “A long pentraxin-3-derived pentapeptide for the therapy of FGF8b-driven steroid hormone-regulated cancers” (Oncotarget, 2015).
